B1: Ameloblastin (Homo sapiens), Q9NP70 (parent)
chain: MSASKIPLFKMKDLILILCLLEMSFAVPFFPQQSGTPGMASLSLETMRQLGSLQRLNTLSQYSRYGFGKSFNSLWMHGLLPPHSSLPWMRPREHETQQYEYSLPVHPPPLPSQPSLKPQQPGLKPFLQSAAATTNQATALKEALQPPIHLGHLPLQEGELPLVQQQVAPSDKPPKPELPGVDFADPQGPSLPGMDFPDPQGPSLPGLDFADPQGSTIFQIARLISHGPMPQNKQSPLYPGMLYVPFGANQLNAPARLGIMSSEEVAGGREDPMAYGAMFPGFGGMRPGFEGMPHNPAMGGDFTLEFDSPVAATKGPENEEGGAQGSPMPEANPDNLENPAFLTELEPAPHAGLLALPKDDIPGLPRSPSGKMKGLPSVTPAAADPLMTPELADVYRTYDADMTTSVDFQEEATMDTTMAPNSLQTSMPGNKAQEPEMMHDAWHFQEP

The test covers variants of B1. To be noted: with fa20c_human FAM20C.
On to T46A, for which the “effect of a mutation on the interaction” value is given as “with no effect”. The same measure for T36A: “with no effect”. The value for S41A was “with no effect”; that for S34A was “with no effect”.
